Measured values: patent US20100095387A1, “METHODS AND REAGENTS FOR SCREENING NEW DRUGS AND FOR TREATING ION PUMP ASSOCIATED DISORDERS AND DISEASES” (priority 2005, published 2010)

Target: α3 subunit of the Na+/K+-ATPase, endogenous on mouse cells (cortical neurons, cortical slices, cardiac myocytes) (mouse) (UniProt Q6PIC6)
Assay: cell-based or functional assay

Substance	EC50 of c-fos induction (Fos in situ enzyme-linked immunoassay, cortical cultures) [nM]
C-Ag95z8, soluble 95-kD COOH terminus of mouse agrin, y4 z8 (from UniProt A2ASQ1 1144-1950) (ligand)	0.0127
C-Ag95z0, soluble 95-kD COOH terminus of mouse agrin, y4 z0 (from UniProt A2ASQ1 1144-1950) (ligand)	0.0119
